Results: article PMC10108200, “Reaction Pathways for the Enzymatic Degradation of Poly(Ethylene Terephthalate): What Characterizes an Efficient PET‐Hydrolase?” (Chembiochem, 2022)

Columns and labels:
Assay in all cases: initial rates by RP-HPLC, Michaelis-Menten fit
[1] = substrate: O=C(O)c1ccc(C(=O)OCCOC(=O)c2ccc(C(=O)OCCO)cc2)cc1; type: biochemical, Mycothermus thermophilus; details: 50 °C, 10 min, 0-2 mM substrate, 0.01-0.5 μM enzyme
From the text: (§1) initial rates by RP-HPLC, Michaelis-Menten fit on HiC

[2] = substrate: O=C(O)c1ccc(C(=O)OCCOC(=O)c2ccc(C(=O)OCCOC(=O)c3ccc(C(=O)O)cc3)cc2)cc1; type: biochemical, Mycothermus thermophilus; details: 50 °C, 10 min, 0-2 mM substrate, 0.01-0.5 μM enzyme
From the text: as §1

[3] = substrate: O=C(O)c1ccc(C(=O)OCCO)cc1; type: biochemical, unidentified prokaryotic organism; details: 50 °C, 2 h, 0-2 mM substrate, 0.01-0.5 μM enzyme
From the text: (§2) initial rates by RP-HPLC, Michaelis-Menten fit on LCC

[4] = substrate: O=C(O)c1ccc(C(=O)OCCOC(=O)c2ccc(C(=O)OCCO)cc2)cc1; type: biochemical, unidentified prokaryotic organism; details: 50 °C, 10 min, 0-2 mM substrate, 0.01-0.5 μM enzyme
From the text: as §2

[5] = substrate: O=C(O)c1ccc(C(=O)OCCOC(=O)c2ccc(C(=O)OCCOC(=O)c3ccc(C(=O)O)cc3)cc2)cc1; type: biochemical, unidentified prokaryotic organism; details: 50 °C, 10 min, 0-2 mM substrate, 0.01-0.5 μM enzyme
From the text: as §2

[6] = substrate: O=C(OCCO)c1ccc(C(=O)OCCO)cc1; type: biochemical, unidentified prokaryotic organism; details: 50 °C, 10 min, 0-2 mM substrate, 0.01-0.5 μM enzyme
From the text: as §2

[7] = substrate: O=C(O)c1ccc(C(=O)OCCO)cc1; type: biochemical, Thermobifida fusca; details: 50 °C, 2 h, 0-2 mM substrate, 0.01-0.5 μM enzyme
From the text: (§3) initial rates by RP-HPLC, Michaelis-Menten fit on TfC

[8] = substrate: O=C(O)c1ccc(C(=O)OCCOC(=O)c2ccc(C(=O)OCCO)cc2)cc1; type: biochemical, Thermobifida fusca; details: 50 °C, 10 min, 0-2 mM substrate, 0.01-0.5 μM enzyme
From the text: as §3

[9] = substrate: O=C(O)c1ccc(C(=O)OCCOC(=O)c2ccc(C(=O)OCCOC(=O)c3ccc(C(=O)O)cc3)cc2)cc1; type: biochemical, Thermobifida fusca; details: 50 °C, 10 min, 0-2 mM substrate, 0.01-0.5 μM enzyme
From the text: as §3

[10] = substrate: O=C(OCCO)c1ccc(C(=O)OCCO)cc1; type: biochemical, Thermobifida fusca; details: 50 °C, 10 min, 0-2 mM substrate, 0.01-0.5 μM enzyme
From the text: as §3

B1: HiC (Mycothermus thermophilus) (protein)
chain: QLGAIENGLESGSANACPDAILIFARGSTEPGNMGITVGPALANGLESHIRNIWIQGVGGPYDAALATNFLPRGTSQANIDEGKRLFALANQKCPNTPVVAGGYSQGAALIAAAVSELSGAVKEQVKGVALFGYTQNLQNRGGIPNYPRERTKVFCNVGDAVCTGTLIITPAHLSYTIEARGEAARFLRDRIRA
B1 showed a Km [1] of 77 ± 9.1 µM, a kcat [1] of 2.9 ± 0.098 s⁻¹ and a Km [2] of 89 ± 21 µM. It also gave a kcat [2] of 24 ± 2.9 s⁻¹.

B2: LCC (unidentified prokaryotic organism) (protein)
chain: QSNPYQRGPNPTRSALTADGPFSVATYTVSRLSVSGFGGGVIYYPTGTSLTFGGIAMSPGYTADASSLAWLGRRLASHGFVVLVINTNSRFDYPDSRASQLSAALNYLRTSSPSAVRARLDANRLAVAGHSMGGGGTLRIAEQNPSLKAAVPLTPWHTDKTFNTSVPVLIVGAEADTVAPVSQHAIPFYQNLPSTTPKVYVELDNASHFAPNSNNAAISVYTISWMKLWVDNDTRYRQFLCNVNDPALSDFRTNNRHCQ
notes: heterologously expressed and purified
B2 was tested, and the Km [3] was 1200 ± 130 µM, the kcat [3] was 0.048 ± 0.0033 s⁻¹ and the Km [4] was 120 ± 35 µM. The kcat [4] was 21 ± 1.7 s⁻¹, the Km [5] was 790 ± 410 µM and the kcat [5] was 300 ± 122 s⁻¹. The Km [6] was 960 ± 160 µM and the kcat [6] was 6.2 ± 0.62 s⁻¹.

B3: TfC (Thermobifida fusca YX) (protein)
chain: ANPYERGPNPTDALLEASSGPFSVSEENVSRLSASGFGGGTIYYPRENNTYGAVAISPGYTGTEASIAWLGERIASHGFVVITIDTITTLDQPDSRAEQLNAALNHMINRASSTVRSRIDSSRLAVMGHSMGGGGTLRLASQRPDLKAAIPLTPWHLNKNWSSVTVPTLIIGADLDTIAPVATHAKPFYNSLPSSISKAYLELDGATHFAPNIPNKIIGKYSVAWLKRFVDNDTRYTQFLCPGPRDGLFGEVEEYRSTCPF
For B3, the Km [7] was 3800 ± 91 µM, the Km [8] was 170 ± 16 µM and the kcat [8] was 11 ± 0.35 s⁻¹. The Km [9] was 170 ± 38 µM, the kcat [9] was 62 ± 7.3 s⁻¹ and the Km [10] was 230 ± 67 µM. The kcat [10] was 1.1 ± 0.12 s⁻¹.
